T1: Boi2, P39969
T1 sequence (P39969 32-116, looked up): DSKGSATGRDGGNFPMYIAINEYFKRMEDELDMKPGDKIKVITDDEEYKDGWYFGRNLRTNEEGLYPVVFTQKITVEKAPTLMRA

T2: Boi1, P38041
T2 sequence (P38041 1-86, looked up): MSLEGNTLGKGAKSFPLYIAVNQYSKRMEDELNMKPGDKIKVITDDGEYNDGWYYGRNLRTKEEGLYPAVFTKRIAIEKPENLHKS

T3: Pex13, P80667
T3 sequence (P80667 295-386, looked up): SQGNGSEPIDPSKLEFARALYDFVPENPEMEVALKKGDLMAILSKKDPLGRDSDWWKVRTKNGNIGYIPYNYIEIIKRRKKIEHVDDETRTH

T4: Abp1, P15891
T4 sequence (P15891 535-592, looked up): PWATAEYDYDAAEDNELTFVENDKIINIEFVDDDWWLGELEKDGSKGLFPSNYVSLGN

T5: Nbp2, Q12163
T5 sequence (Q12163 103-180, looked up): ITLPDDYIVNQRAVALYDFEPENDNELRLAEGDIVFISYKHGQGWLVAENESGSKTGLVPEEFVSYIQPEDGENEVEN

T6: Lsb3, P43603
T6 sequence (P43603 385-451, looked up): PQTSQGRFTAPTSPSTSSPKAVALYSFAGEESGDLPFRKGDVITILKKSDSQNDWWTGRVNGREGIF

T7: Sla1-3, P32790
T7 sequence (P32790 344-424, looked up): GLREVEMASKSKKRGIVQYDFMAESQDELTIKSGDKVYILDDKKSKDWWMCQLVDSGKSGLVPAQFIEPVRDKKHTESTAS

T8: Lsb1, P53281
T8 sequence (P53281 45-122, looked up): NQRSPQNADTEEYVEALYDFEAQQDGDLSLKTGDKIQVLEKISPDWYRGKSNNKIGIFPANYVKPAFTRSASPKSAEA

T9: Sla1-2, P32790
T9 sequence (P32790 60-140, looked up): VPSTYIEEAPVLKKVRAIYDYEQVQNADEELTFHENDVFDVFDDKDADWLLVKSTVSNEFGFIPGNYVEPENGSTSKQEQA

T10: Myo5, Q04439
T10 sequence (Q04439 1072-1160, looked up): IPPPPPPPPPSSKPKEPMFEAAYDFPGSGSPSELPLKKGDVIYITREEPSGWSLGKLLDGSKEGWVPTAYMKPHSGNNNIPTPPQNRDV

T11: Bbc1, P47068
T11 sequence (P47068 1-78, looked up): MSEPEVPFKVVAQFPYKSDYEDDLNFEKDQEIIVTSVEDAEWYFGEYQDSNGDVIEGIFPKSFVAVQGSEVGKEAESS

T12: Cdc25, P04821
T12 sequence (P04821 50-136, looked up): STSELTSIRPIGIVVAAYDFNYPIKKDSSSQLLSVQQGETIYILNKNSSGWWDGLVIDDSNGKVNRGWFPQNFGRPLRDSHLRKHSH

T13: Bud14, P27637
T13 sequence (P27637 247-328, looked up): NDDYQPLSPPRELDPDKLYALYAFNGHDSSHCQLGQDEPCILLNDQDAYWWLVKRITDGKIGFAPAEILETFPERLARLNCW

T14: Lsb4, P32793
T14 sequence (P32793 402-468, looked up): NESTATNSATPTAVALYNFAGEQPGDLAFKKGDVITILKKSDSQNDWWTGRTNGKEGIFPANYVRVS

T15: Hse1, P38753
T15 sequence (P38753 208-285, looked up): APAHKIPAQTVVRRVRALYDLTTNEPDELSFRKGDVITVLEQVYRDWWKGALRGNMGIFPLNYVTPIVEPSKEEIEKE

T16: Cyk3, Q07533
T16 sequence (Q07533 1-83, looked up): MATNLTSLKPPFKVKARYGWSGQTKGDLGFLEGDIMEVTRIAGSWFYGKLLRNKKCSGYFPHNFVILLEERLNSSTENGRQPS

T17: Pin3, Q06449
T17 sequence (Q06449 53-122, looked up): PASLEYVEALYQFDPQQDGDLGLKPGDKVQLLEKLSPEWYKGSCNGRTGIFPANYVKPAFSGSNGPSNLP

T18: Hof1, Q05080
T18 sequence (Q05080 590-669, looked up): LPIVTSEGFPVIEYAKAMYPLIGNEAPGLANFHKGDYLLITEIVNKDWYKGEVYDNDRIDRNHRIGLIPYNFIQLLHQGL

T19: Bzz1-1, P38822
T19 sequence (P38822 478-572, looked up): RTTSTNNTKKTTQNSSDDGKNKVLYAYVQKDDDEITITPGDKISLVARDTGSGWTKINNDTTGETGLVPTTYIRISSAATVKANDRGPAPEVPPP

T20: Bzz1-2, P38822
T20 sequence (P38822 568-633, looked up): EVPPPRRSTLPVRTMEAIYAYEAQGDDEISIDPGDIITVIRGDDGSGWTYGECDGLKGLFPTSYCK

T21: Fus1, P11710
T21 sequence (P11710 432-512, looked up): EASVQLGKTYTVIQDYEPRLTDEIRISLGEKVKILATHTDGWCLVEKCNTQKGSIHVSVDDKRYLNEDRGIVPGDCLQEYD

B1: unnamed (peptide)
chain: RRSKSLPTTPGIRSG
B2: unnamed (peptide)
chain: QLMKNLPKIPLLNDI
B3: unnamed (peptide)
chain: SRSKPLPLTPNSKYN

Tests used:
Assay in all cases: SPOT array
[1] = molecular target: Sho1, P40073; details: median of control spots 1148
[2] = molecular target: T1, Boi2, P39969; details: median of control spots 1161
[3] = molecular target: Bem1-1, P29366; details: median of control spots 4282
[4] = molecular target: Bem1-2, P29366; details: median of control spots 4347
[5] = molecular target: T2, Boi1, P38041; details: median of control spots 1162
[6] = molecular target: T3, Pex13, P80667; details: median of control spots 1341
[7] = molecular target: T4, Abp1, P15891; details: median of control spots 935
[8] = molecular target: T5, Nbp2, Q12163; details: median of control spots 357
[9] = molecular target: Myo3, P36006; details: median of control spots 468
[10] = molecular target: T6, Lsb3, P43603; details: median of control spots 406
[11] = molecular target: T7, Sla1-3, P32790; details: median of control spots 5475
[12] = molecular target: T8, Lsb1, P53281; details: median of control spots 388
[13] = molecular target: T9, Sla1-2, P32790; details: median of control spots 712
[14] = molecular target: T10, Myo5, Q04439; details: median of control spots 471
[15] = molecular target: T11, Bbc1, P47068; details: median of control spots 796
[16] = molecular target: GST; details: median of control spots 978
[17] = molecular target: T12, Cdc25, P04821; details: median of control spots 969
[18] = molecular target: T13, Bud14, P27637; details: median of control spots 956
[19] = molecular target: T14, Lsb4, P32793; details: median of control spots 397
[20] = molecular target: T15, Hse1, P38753; details: median of control spots 1727
[21] = molecular target: T16, Cyk3, Q07533; details: median of control spots 1451
[22] = molecular target: Rvs167, P39743; details: median of control spots 2707
[23] = molecular target: T17, Pin3, Q06449; details: median of control spots 2171
[24] = molecular target: T18, Hof1, Q05080; details: median of control spots 4086
[25] = molecular target: T19, Bzz1-1, P38822; details: median of control spots 4446
[26] = molecular target: T20, Bzz1-2, P38822; details: median of control spots 4538
[27] = molecular target: T21, Fus1, P11710; details: median of control spots 1200

Chain of Sho1, P40073 (P40073 287-367): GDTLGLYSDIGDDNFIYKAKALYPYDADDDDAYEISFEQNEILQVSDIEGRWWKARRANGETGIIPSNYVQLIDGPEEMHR
Chain of Bem1-1, P29366 (P29366 55-141): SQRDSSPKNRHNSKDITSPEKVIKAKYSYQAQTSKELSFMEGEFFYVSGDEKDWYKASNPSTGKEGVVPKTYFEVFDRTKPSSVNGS
Chain of Rvs167, P39743 (P39743 419-482): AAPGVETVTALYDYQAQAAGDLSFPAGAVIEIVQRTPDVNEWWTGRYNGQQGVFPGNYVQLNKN
Chain of Bem1-2, P29366 (P29366 139-227): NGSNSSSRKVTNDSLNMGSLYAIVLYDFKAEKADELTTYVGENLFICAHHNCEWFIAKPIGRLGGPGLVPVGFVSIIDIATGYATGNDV

Binder	SPOT intensity [1]	SPOT intensity [2]	SPOT intensity [3]	SPOT intensity [4]	SPOT intensity [5]	SPOT intensity [6]	SPOT intensity [7]	SPOT intensity [8]	SPOT intensity [9]	SPOT intensity [10]	SPOT intensity [11]	SPOT intensity [12]	SPOT intensity [13]	SPOT intensity [14]	SPOT intensity [15]	SPOT intensity [16]	SPOT intensity [17]	SPOT intensity [18]	SPOT intensity [19]	SPOT intensity [20]	other results
B1	1350	1	1	0	3	8	229	49	12	1	26	8	0	0	19	0	17	20	2	5	SPOT intensity [21]: 0; SPOT intensity [22]: 0; SPOT intensity [23]: 5; SPOT intensity [24]: 0; SPOT intensity [25]: 0; SPOT intensity [26]: 1; SPOT intensity [27]: 63
B2	861	1	5	0	1	162	76	10	72	21	2	6	5	68	0	1	0	0	41	1	SPOT intensity [21]: 0; SPOT intensity [22]: 0; SPOT intensity [23]: 78; SPOT intensity [24]: 11; SPOT intensity [25]: 1; SPOT intensity [26]: 7; SPOT intensity [27]: 0
B3	1030	0	0	1	2	21	109	0	0	0	7	0	3	0	5	0	2	5	2	1	SPOT intensity [21]: 1; SPOT intensity [22]: 1; SPOT intensity [23]: 19; SPOT intensity [24]: 0; SPOT intensity [25]: 2; SPOT intensity [26]: 4; SPOT intensity [27]: 0

Source: paper PMC2756588
